Assay [1] has as its target T1, Unprocessed hMPV PreF trimer (human metapneumovirus, strain B2).
T1 construct: also called Unprocessed hMPV WT PreF trimer; unprocessed hMPV PreF trimeric antigen
Description: BLI, mAb on anti-human Fc sensor. On the technique in general: In BLI a coated tip is dipped into the sample, and binding shifts an interference pattern.

The target in assay [2] is T2, Processed stabilized hMPV PreF trimer (115BV) (human metapneumovirus, strain B2).
T2 construct: also called Processed hMPV PreF trimer; processed PreF
Description: BLI, mAb on anti-human Fc sensor.

The target in a further assay is T3, hMPV PostF trimer (human metapneumovirus, strain B2).
T3 construct: also called MPV PostF (dPFv1)
In words: BLI, mAb on anti-human Fc sensor.

Assay [3] concerns the target T2, Processed stabilized hMPV PreF trimer …. In words: BLI, ratio to unprocessed PreF trimer.

B1: M2C07 (antibody, V domains shown)
VH: QVQLQESGPGLVAPSQTLSLICDVSGDSVTSGAYSWSWIRQHPVKGLEWIAYINYSGRTNYNPSLQSRLVISVDRSKNQFSLRLSSVTAADTAVYYCARANVVGYSGFYFDYWGQGTLVAVSS
VL: DIQMTQSPSSLSASVGDTVTITCRASQSVGAYLNWYQQKPGKAPKLLVFAGSSLQTGVPSRFSGRGSRTEFTLTITNLQREDFASYYCQQSLGDFLTFGGGTKVEIK
notes: IgG
Consider B1, for which the Octet binding response in assay [1] turned out to be 0.418 nm; in assay [2], 0.44 nm; in the assay with hMPV PostF trimer, 0.454 nm. In assay [3], the “processed/unprocessed PreF trimer binding ratio” value came out at 1.05.

B2: M2D03 (antibody, V domains shown)
VH: QVQLQESGPGLVAPSQTLSLICDVSGDSVTSGAHSWSWIRQHPVKGLEWIAYINYSGRTNYNPSLQSRLVISVDRSKNQFSLRLSSVTAADTAVYYCARANVVGYSGYYFDYWGQGTLVAVSS
VL: DIQMTQSPSSLSASVGDRVTITCRASQSVGAYLNWYQQKPGKAPKLLIFAGSSLQTGVPSRFSGRGSRTEFTLTISNLQREDFATYYCQQSLGDFLTFGGGTKVEIK
notes: IgG
B2: the Octet binding response in assay [1] is 0.425 nm; in assay [2] it was 0.466 nm; with hMPV PostF trimer, 0.503 nm. In assay [3], the “processed/unprocessed PreF trimer binding ratio” value was 1.1.

B3: M3E10 (antibody, V domains shown)
VH: QVQLVQSGAEVKKPGSSVKVSCKASGGTINSYAISWVRQAPGQGPEWLGGIIPIFGTANYAQNFPGRVTITADASTSTVYMELSSLRSDDTAIYYCARGTRYIAVMVPSMQDYYFFGMDVWGQGTTVTVSS
VL: DIQLTQSPSFLSASVGDRVTITCRASQGISSYLAWYQQKPGQAPKLLIYAASTLQSGVPSRFSGSGSGTEFTLTISSLQPEDFATYYCQQVTSYPFSITFGQGTRLEIK
notes: IgG
Regarding B3, the Octet binding response in assay [1] was 0.351 nm; in assay [2], 0.17 nm; in the assay with hMPV PostF trimer it was 0.0082 nm. Further, the “processed/unprocessed PreF trimer binding ratio” value in assay [3] is 0.48.

B4: M7D5 (antibody, V domains shown)
VH: QVQLVQSGAEVKKPGSSVKVSCKASGGTLSNYAISWVRQAPGQGLEWMGGIIPIFGTAMYAHNFQDRVTFTADESTNTVYMAVSRLTSDDTAVYYCAQDRTVTKYAHGLDVWGQGTTVTVSS
VL: DIQMTQSPSSLSASVGDRITITCPASQSLLTYLNWYQQKPGKAPKLLIYSASELPSGVPSRFSGSGSGTEFTLTVTGLQPDDFATYYCQQSHTTPLTFGGGTKVEIKR
notes: IgG
As for B4, the Octet binding response came out at 0.296 nm in assay [1], 0.347 nm in assay [2] and 0.0826 nm with hMPV PostF trimer. For the same molecule, in assay [3], the “processed/unprocessed PreF trimer binding ratio” value is 1.17.

B5: M3A01 (antibody, V domains shown)
VH: EVQLVESGGGLVKPGGSLRLSCSVSAFSISGYNMHWVRQAPGKGLEWVSSITGGSNYINYADSVKGRFTISRDNAQNSLYLQMKSLRAEDTAVYYCARETQPSPGSFDSWGQGTLVTVSS
VL: QSVLTQPPSVSGAPGQRVTISCTGSSSNIGAGYDVNWYQQLPGTAPKLLIYGNYNRPSGVPDRFSASKSGTSASLAITGLQAEDEADYWCQSYDTSLSGWIFGGGTKLTVL
notes: IgG
For the molecule B5, the values for the Octet binding response (in assay [1]; in assay [2]; with hMPV PostF trimer) were 0.251 nm, 0.261 nm and -0.062 nm, respectively. Also, the “processed/unprocessed PreF trimer binding ratio” value in assay [3] came to 1.04.

B6: M3E04 (antibody, V domains shown)
VH: EVQLVESGGGLVKPGGSLRLSCAGSGFTFSSYSMNWVRQAPGKGLEWVSSISASSSYIYYADSLKGRFTISRDNAKNSLYLQMNSLRAEDTAVYYCARANYGSGNYYNPKWFDPWGQGTLVTVSS
VL: QSVLTQPPSVSGAPGQRVTISCTGSSSNIGAGYDVHWYQQFPGTAPKVLIYGNNNRPSGVPDRFSGSKSGTSASLAISGLQAEDEADYYCQSYDSSLSGSIFGGGTKLTVL
notes: IgG
Consider B6, for which the results for the Octet binding response (in assay [1]; in assay [2]; with hMPV PostF trimer) were 0.3 nm, 0.0401 nm and 0.0262 nm, respectively. For the same molecule, the “processed/unprocessed PreF trimer binding ratio” value in assay [3] turned out to be 0.13.

B7: M3D10 (antibody, V domains shown)
VH: QVQLQESGPGLVKPSETLSLTCTVSGGSVSTYYWTWIRQPPGKGLDWIGYIYHNGNINYNPSLKSRVTMSVDTSKNQFSLKLTSVTAADTALYYCATVSFIGYSLYYFDRWGQGTLVTVSS
VL: DIQMTQSPSSLSASVGDRVTITCRASQNIASFLNWYQQRPGKAPDLLIYAASTLQTGVPSRFSGSGSGTDFTLAISSLQPEDFATYYCQQSYNTPFTFGQGTKLEIK
notes: IgG
With B7, the Octet binding response in assay [1] worked out at 0.38 nm; in assay [2], 0.397 nm; with hMPV PostF trimer, 0.473 nm. For the same molecule, in assay [3], the “processed/unprocessed PreF trimer binding ratio” value amounted to 1.04.

B8: M4A06 (antibody, V domains shown)
VH: EVQLVESGGGLVRPGGSLRLSCAASGFSLTTDEVNWVRQAPGKGPEWVSFISASGHTIYYADSVKGRFTISRDNGRNSVYLQMNSLRAEDTAVYYCARVGRLGGVGYYYALGPFDLWGQGTMVTVSS
VL: EIVLTQSPGTLSLSPGERATLSCRASQSITSNYLAWYQQKPGQAPRLLIYGASSRATGIPDRFSGSGSGTDFTLTISRLQPEDFAVYYCQQYGSSLYIFGQGTKLEIK
notes: IgG
For B8, the results for the Octet binding response (in assay [1]; in assay [2]; with hMPV PostF trimer) were 0.36 nm, 0.281 nm and 0.449 nm, respectively. Also, the “processed/unprocessed PreF trimer binding ratio” value in assay [3] was determined as 0.78.

B9: M2B06 (antibody, V domains shown)
VH: QVQLQESGPRLVKPSGTLSLTCAVSGASITSSHWWTWVRQPPGKGLEWIGRIFHSGSTNYNPSLKSRVTISLDKSRNQFSLTLTSVTAADTAVYYCARDDQIVVMPAGFDRWGQGALVIVSS
VL: DIQMTQSPSSLSASVGDRVTITCRASQTISSYLNWYQQTPGKAPNLLIYGASRLQGGVPSRFSGSGSGTDFTLTISSLQPEDFAIYFCQQSKSIPYTFGQGTRLEIK
notes: IgG
For B9, the Octet binding response in assay [1] came to 0.389 nm; in assay [2], 0.401 nm; in the assay with hMPV PostF trimer, 0.436 nm. Moreover, in assay [3], the “processed/unprocessed PreF trimer binding ratio” value stood at 1.03.

B10: M2C06 (antibody, V domains shown)
VH: QVQLVQSGAEVKKPGSSVKVSCRPSGGTFSNDILSWVRQAPGQRLEWMGRIIPLVNMTNIAQKFQGRLTLVADKSTAIVHLELGSLRAEDTAIYYCVRDLPSAGFPAPFDIWGQGTRVTVSA
VL: EIVLTQSPGSLSLSPGARATVSCRASQSLNSASLVWYQQRVGQAPRLLMFGASNRATGIPDRFSGSGSGTDFTLTISRLEPEDFAVYYCQQYAFSPPTFGQGTKVEIK
notes: IgG
Regarding B10, the results for the Octet binding response (in assay [1]; in assay [2]; in the assay with hMPV PostF trimer) were 0.408 nm, 0.472 nm and 0.436 nm, respectively. In assay [3], the “processed/unprocessed PreF trimer binding ratio” value amounted to 1.16.

B11: M3D05 (antibody, V domains shown)
VH: QVQLVQSGAEVKQPGASVKVSCKASGYTFSGYYIQWVRQAPGQGLEWMGWINPNSGGTNFAQKFQGRVTMTSDTSTSAAYMELSSLRSDDTAVYYCVRGQQLTRQYYFGMDVWGQGTTVTVSS
VL: QSVLTQPPSVSGAPGQRVIISCSGSSSNIRSNAVNWYQQLPGKAPKLLIFYDGLLPSGVSDRFSGSKTGNSASLAISGLQSEDEADYYCAAWDDSLNGPVFGGGTKLTVL
notes: IgG
On to B11, for which the Octet binding response worked out at 0.338 nm in assay [1], 0.0831 nm in assay [2] and 0.539 nm with hMPV PostF trimer. Besides, the “processed/unprocessed PreF trimer binding ratio” value in assay [3] was determined as 0.25.

B12: M3C04 (antibody, V domains shown)
VH: EVQLVQSGAEVKKPGESLKISCKGSGYNFANYWIGWVRQMPGKGLEWMGIIYPGDSDTRRNPSFQGHVTMSVDQSISTAYLQWSSLKASDTAMYYCARPLAVSAFDIWGQGTMVTVSS
VL: DIQMTQSPSSLSASVGDKLTITCRASQSISNYLNWYQQKSGKAPKLLIYAASSLQSGVPSRFSGSGSGTDFTLTISSLQPEDFATYYCQQSASTPHTFGQGTKVEIV
notes: IgG
On to B12, for which the Octet binding response worked out at 0.379 nm in assay [1], 0.31 nm in assay [2] and 0.409 nm in the assay with hMPV PostF trimer. For the same molecule, in assay [3], the “processed/unprocessed PreF trimer binding ratio” value is 0.82.

B13: M2D11 (antibody, V domains shown)
VH: QVQLQQWGAGLLKPSETLSLTCAVSGGSFSGYHWTWIRQPPGKGLEWIGEVDHGGNTNYNPSLMSRVTISVDMSTKQFSLRLTSMTAADTAVYYCARGFGVVINNWFDPWGQGTLVTVTS
VL: DIQMTQSPSSLSASVGDRVTITCRASQTISSYLNWYQQKPGKAPNLLIYTVSTLQSGVPSRFSGSGSGTDFTLTISSLQPEDFATYYCQQSYGAPYTFGQGTKLEIK
notes: IgG
Regarding B13, the Octet binding response in assay [1] is 0.41 nm; in assay [2], 0.436 nm; in the assay with hMPV PostF trimer it was 0.43 nm. The “processed/unprocessed PreF trimer binding ratio” value in assay [3] came out at 1.06.

B14: M3A08 (antibody, V domains shown)
VH: EVQLVESGGGLVKPGGSLRLSCAASGFSITSYGMHWVRQAPGKGLEWVSSISSSSSYISYRDSVKGRFTVSRDNAGNSLSLQMNSLRGEDTAVYHCARDAGLVPPWMDSWGQGTLVIVSS
VL: QSVLTQPPSVSGAAGQRVTISCTGSSSNLGTGYDVHWYRQQPGTAPKLIMFGNTNRPSGVPGRFSGSRSGTSASLAITGLQADDEADYYCQSYDSSLGGLVFGGGTKLTVL
notes: IgG
Regarding B14, the Octet binding response in assay [1] is 0.422 nm; in assay [2], 0.249 nm; with hMPV PostF trimer it was -0.0217 nm. The “processed/unprocessed PreF trimer binding ratio” value in assay [3] was 0.59.

B15: M3C11 (antibody, V domains shown)
VH: QVQLQESGPGLVKPSETLSLTCTVSGGSLSSYCWSWIRQPPGKGLEWIGYIYYSGGTNYNPSLKSRVTISVDTSKNQFSLNLSSVTAADTAVYYCARGEASGYLNYYFDYWGQGTLVAVSS
VL: SYELTQPPSVSVSPGQTASITCSGHKLGDKYAYWYQQKPGQSPVLVIYQDNKRPSGIPERFSGSNSGNTATLTISGTQAMDEADYYCQAWDSGTVFGGGTKLTVL
notes: IgG
For the molecule B15, the Octet binding response is 0.317 nm in assay [1], 0.0794 nm in assay [2] and 0.433 nm with hMPV PostF trimer. Besides, the “processed/unprocessed PreF trimer binding ratio” value in assay [3] is 0.25.

Values taken from patent US20240327502A1 (Merck Sharp & Dohme, published 2024).
